What was measured:
[1] = target: T1, α-synCas (synthetic ancestral Cas12a-like nuclease, ASR) (synthetic construct (ancestral …, UniProt PDB:8QWE_1 1-1261)); experiment: cryo-EM
T1 chain: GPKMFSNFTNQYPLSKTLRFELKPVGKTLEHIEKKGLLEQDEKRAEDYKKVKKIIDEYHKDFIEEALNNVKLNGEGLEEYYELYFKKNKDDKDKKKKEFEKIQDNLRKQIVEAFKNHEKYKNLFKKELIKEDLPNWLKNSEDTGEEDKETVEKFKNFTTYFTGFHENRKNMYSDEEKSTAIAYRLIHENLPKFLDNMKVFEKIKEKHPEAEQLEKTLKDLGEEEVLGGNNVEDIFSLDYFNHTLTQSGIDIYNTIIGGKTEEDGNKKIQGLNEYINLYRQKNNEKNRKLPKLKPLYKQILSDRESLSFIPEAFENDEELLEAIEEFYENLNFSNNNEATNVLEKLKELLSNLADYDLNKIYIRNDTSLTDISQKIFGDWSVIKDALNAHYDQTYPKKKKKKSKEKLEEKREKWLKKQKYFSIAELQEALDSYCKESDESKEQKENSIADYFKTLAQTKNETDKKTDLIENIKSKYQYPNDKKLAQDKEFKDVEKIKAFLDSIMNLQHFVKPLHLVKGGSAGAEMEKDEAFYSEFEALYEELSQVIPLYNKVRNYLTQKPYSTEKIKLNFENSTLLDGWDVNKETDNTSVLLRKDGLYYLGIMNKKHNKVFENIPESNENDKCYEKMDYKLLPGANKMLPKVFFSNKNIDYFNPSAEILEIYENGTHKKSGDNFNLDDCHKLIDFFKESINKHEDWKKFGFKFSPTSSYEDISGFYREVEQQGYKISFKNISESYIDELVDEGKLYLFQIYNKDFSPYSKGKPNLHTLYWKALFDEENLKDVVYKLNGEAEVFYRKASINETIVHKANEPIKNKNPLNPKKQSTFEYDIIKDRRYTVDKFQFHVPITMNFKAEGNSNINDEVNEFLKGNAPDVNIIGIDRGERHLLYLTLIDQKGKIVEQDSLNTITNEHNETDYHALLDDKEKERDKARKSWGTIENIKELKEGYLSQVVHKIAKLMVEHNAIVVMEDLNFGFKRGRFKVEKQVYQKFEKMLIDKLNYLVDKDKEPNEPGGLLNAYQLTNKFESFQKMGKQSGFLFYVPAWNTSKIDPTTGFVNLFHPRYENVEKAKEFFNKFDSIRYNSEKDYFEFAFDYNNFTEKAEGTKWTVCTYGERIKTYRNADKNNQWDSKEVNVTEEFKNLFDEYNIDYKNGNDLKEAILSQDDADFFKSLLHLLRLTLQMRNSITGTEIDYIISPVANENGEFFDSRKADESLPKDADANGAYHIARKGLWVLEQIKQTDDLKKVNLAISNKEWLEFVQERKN

[2] = target: T1, α-synCas (synthetic ancestral …); experiment: size exclusion chromatography

Binder	binding result [1]	binding result [2]
crRNA + target dsDNA (cis DNA), ternary complex (mixed) RNA: AAUUUCUACUGUUGUAGAUUCCUAAGGCGUUACCCCAAU DNA 1: CTAGCATATTTATCCTAAGGCGTTACCCCAATGGGAGGG DNA 2: CCCTCCCATTGGGGTAACGCCTTAGGATAAATATGCTAG	binds	
AAUUUCUACUGUUGUAGAUUCCUAAGGCGUUACCCCAAU (structured_RNA) [crRNA (cryo-EM)]		binds

From publication doi:10.1101/2023.11.12.566739
